Measured values as given in patent US20060159616.

Experiments:
[1] = target: T1, V-P-R-AMC fluorogenic substrate
T1 chain: VPR

[2] = target: T2, F-S-R-AMC fluorogenic substrate
T2 chain: FSR

B1: recombinant hK13 protein (active form of human kallikrein 13, produced in Pichia pastoris) (protein)
chain: VLNTNGTSGFLPGGYTCFPHSQPWQAALLVQGRLLCGGVLVHPKWVLTAAHCLKEGLKVYLGKHALGRVEAGEQVREVVHSIPHPEYRRSPTHLNHDHDIMLLELQSPVQLTGYIQTLPLSHNNRLTPGTTCRVSGWGTTTSPQVNYPKTLQCANIQLRSDEECRQVYPGKITDNMLCAGTKEGGKDSCEGDSGGPLVCNRTLYGIVSWGDFPCGQPDRPGVYTRVSRYVLWIRETIRKYETQQQKWLKGPQ
- fluorescence of the substrate VPR-AMC, 10 ng of enzyme (substrate alone 0.5 arbitrary units) [1]: to 1.9 arbitrary units (10 ng of enzyme)
- fluorescence of the substrate VPR-AMC, 100 ng of enzyme (substrate alone 0.5 arbitrary units) [1]: to 13.9 arbitrary units (100 ng of enzyme)
- fluorescence of the substrate VPR-AMC, 160 ng of enzyme (substrate alone 0.5 arbitrary units) [1]: to 35.5 arbitrary units (160 ng of enzyme)
- fluorescence of the substrate FSR-AMC, 10 ng of hK13 (substrate alone 1.1 arbitrary units) [2]: to 1.9 arbitrary units (10 ng of hK13)
- fluorescence of the substrate FSR-AMC, 100 ng of hK13 (substrate alone 1.1 arbitrary units) [2]: to 6.9 arbitrary units (100 ng of hK13)
- fluorescence of the substrate FSR-AMC, 160 ng of hK13 (substrate alone 1.1 arbitrary units) [2]: to 14.5 arbitrary units (160 ng of hK13)
